Data from paper PMC10981688 (2024).

Biological target: recombinant human PCSK9 with 6x His tag (proprotein convertase subtilisin/kexin type-9) (human, UniProt Q8NBP7 31-692)
Test: BLI

koff: 0.00132 s⁻¹
B1: recombinant human CAP1 (adenylyl cyclase-associated protein 1) (natural protein)
chain: MADMQNLVERLERAVGRLEAVSHTSDMHRGYADSPSKAGAAPYVQAFDSLLAGPVAEYLKISKEIGGDVQKHAEMVHTGLKLERALLVTASQCQQPAENKLSDLLAPISEQIKEVITFREKNRGSKLFNHLSAVSESIQALGWVAMAPKPGPYVKEMNDAAMFYTNRVLKEYKDVDKKHVDWVKAYLSIWTELQAYIKEFHTTGLAWSKTGPVAKELSGLPSGPSAGSCPPPPPPCPPPPPVSTISCSYESASRSSLFAQINQGESITHALKHVSDDMKTHKNPALKAQSGPVRSGPKPFSAPKPQTSPSPKRATKKEPAVLELEGKKWRVENQENVSNLVIEDTELKQVAYIYKCVNTTLQIKGKINSITVDNCKKLGLVFDDVVGIVEIINSKDVKVQVMGKVPTISINKTDGCHAYLSKNSLDCEIVSAKSSEMNVLIPTEGGDFNEFPVPEQFKTLWNGQKLVTTVTEIAG
